# Laboratory results from patent US12280118B2 (Kyowa Kirin Co., Ltd., priority 2017, dated 2025).
# Experiments:
# Format in all cases: cell-based
# human Tregs = assay: Treg proliferation activity; conditions: for Treg proliferation activity: with respect to IL-2 (P) or 8His-IL-2 (P) as control
# Protocol: After human frozen peripheral blood mononuclear cells (PBMCs) (manufactured by AllCells) were melted in a warm bath at 37° C., the cells were suspended in 10 mL of a culture medium [X-vivo15 SFM (manufactured by Lonza) 1000 mL, heat-inactivated human AB serum (manufactured by SIGMA) 150 mL], and a T-75 flask for adhesion (manufactured by greiner bio-one) was seeded the cells, and allowed to stand for 24 hours to culture the cells (37° C., under conditions of 95 vol % air/5 vol % CO2). A total amount of cells was collected, and CD4^+ T cells were enriched using EasySep Human CD4^+ Tcells Enrichment kit (manufactured by […] Technologies).
# After staining (on ice, 30 minutes) with Anti-human CD4-Alexa 488 (manufactured by Biolegend), anti-human CD25-PE (manufactured by BD Pharmingen), and anti-human CD127-BV421 (manufactured by Biolegend), a CD4^+ CD25^+ CD127^low fraction (Treg) was separated using a cell sorter SH800 (manufactured by SONY Biotechnology).
# The separated Treg and CD3/CD28 Dynabeads (manufactured by Thermo Fischer […]) washed three times with the culture medium were mixed with each other, and suspended in a culture medium at 3.4×10^4 cells/mL, respectively, and a 96-well U bottom plate (manufactured by Corning) was seeded with at 150 μL/well.
# After culturing for 5 to 7 days, 50 μL of a total volume of each well was transferred to a 96-well white plate. A Celltiter-Glo solution was added at 50 μL/well, and the mixture was allowed to stand at room temperature for 10 minutes, and then a luminescence value was measured using a luminometer (manufactured by TURNER BIOSYSTEMS).
# human NK cells = assay: NK cell proliferation activity; conditions: for cell proliferation activity on NK cells: compared with IL-2 (P) and 8His-IL-2 as controls
# Protocol: A separation of NK cells from human PBMC was performed by a method below. Frozen human PBMC was thawed according to the method described in Example 13, and CD56^+ NK cells were separated using NK Cell Isolation Kit human (manufactured by Miltenyi Biotech). The separated cells were washed three times with a culture medium (1500 rpm, room temperature, 5 minutes) and then subjected to a proliferation assay below.
# FIGS. 2A to 2H show results obtained using a proliferation medium, and FIGS. 2I to 2K show results obtained using the X-vivo 10 SFM.
# human Tresp = assay: Inhibitory activity of IL-2-stimulated Tregs on Tresp proliferation; conditions: Tregs cultured 7 days with IL-2 (final concentration 65 nM); compared with unstimulated Treg
# Protocol: All cells were separated from each other by the same lot of frozen human PBMC.
# Seven days before the assay, Tregs were separated from the frozen human PBMCs as described in Example 13.
# The cell preparation on the day of test was performed as follows. Tregs were separated from the frozen human PBMC by the method described in Example 13 and used as unstimulated Tregs. After CD3^+CD25^− T cells were separated from the frozen human PBMC, by using EasySep Human T Cell Enrichment Kit (manufactured by [sequence] Technologies) and EasySep Human Pan-CD25 Positive Selection and Depletion Kit (manufactured by [sequence] Technologies), the cells were labeled by reacting Celltrace violet (manufactured by Thermo Fischer [sequence]) diluted to 40 μmol/L with a 10% FBS-containing RPMI1640 medium, at room temperature for 5 minutes.
# The obtained cells were used as responder T cells (Tresp). HLA-DR+ cells were separated from frozen human PBMCs using Anti-HLA-DR MicroBeads, human (manufactured by Miltenyi Biotec). The obtained cells were used as Antigen presenting cell (APC).
# After the obtained cells were suspended in X-vivo 15 SFM to which an anti-CD3 antibody OKT3 (manufactured by Biolegend) was added to obtain a final concentration of 0.5 μg/mL, a 96-well V-bottom plate (manufactured by Sumitomo Bakelite) was seeded with Tresp at 2×10^4 cells/well (50 μL), APC at 1×10^5 cells/well (50 μL), and Tregs at 1.6×10^2 to 5×10^3 cells/well (50 μL) (Tresp:Treg=4:1 to 128:1), and the cells were cultured at 37° C. under 5% CO2 for 4 days.
# Thereafter, the cells were stained with anti-human CD4-APC (manufactured by BD Pharmingen) and anti-human CD8-PE (manufactured by BD Pharmingen) (at room temperature for 15 minutes), and then various fluorescent intensities were measured by flow cytometer FACS Canto II (manufactured by BD Biosciences).
# The obtained data was exported as FCS file, and then analyzed using data analysis software FLowJo (TreeStar, version 7.6.5) for a division index value, which is an average number of cell divisions in CD4^+ Tresp or CD8^+ Tresp.
Molecule,Treg proliferation activity (human Tregs),cell proliferation activity on NK cells (human NK cells),proliferation of Tresp in the presence of IL-2-stimulated Tregs (human Tresp),"IL-2-dependent cell proliferation rate (human Tregs; Treg, IL-2 concentration of 65 nmol/L) [%]","IL-2-dependent cell proliferation rate (human NK cells; NK cells, X-vivo 10 SFM, IL-2 concentration of 65 nmol/L) [%]"
E15C-11: glycosylated IL-2 variant; E15 to C-disialo; C125S,maintained,greatly reduced,,,
H16C-2: glycosylated IL-2 variant; H16 to C-lactose,maintained,greatly reduced,inhibited,,
L19C-9: glycosylated IL-2 variant; L19 to C-asialo,maintained,greatly reduced,inhibited,,
N88C-2: glycosylated IL-2 variant; N88 to C-lactose,maintained,greatly reduced,inhibited,,
"F78C-V40(IAc)/L12C-11: Cys-PEGylated and glycosylated IL-2 variant; F78 to C-V40(IAc); L12 to C-disialo; C125S (protein, UniProt P60568 21-153, looked up, variant L12C F78C C125S, PEG on C78; disialo glycan on C12, Cys-PEGylated and glycosylated IL-2 variant; F78 to C-V40(IAc); L12 to C-disialo; C125S) Interleukin-2: APTSSSTKKTQCQLEHLLLDLQMILNGINNYKNPKLTRMLTFKFYMPKKATELKHLQCLEEELKPLEEVLNLAQSKNCHLRPRDLISNINVIVLELKGSETTFMCEYADETATIVEFLNRWITFSQSIISTLT",lowered,greatly reduced,,≥ 80,
"V91C-11/V115C-11: glycosylated IL-2 variant; V91, V115 to C-disialo; C125S (protein, UniProt P60568 21-153, looked up, variant V91C V115C C125S, disialo glycans on cysteines, glycosylated IL-2 variant; V91, V115 to C-disialo; C125S) Interleukin-2: APTSSSTKKTQLQLEHLLLDLQMILNGINNYKNPKLTRMLTFKFYMPKKATELKHLQCLEEELKPLEEVLNLAQSKNFHLRPRDLISNINCIVLELKGSETTFMCEYADETATICEFLNRWITFSQSIISTLT",maintained,greatly reduced,,,
"T3C-Li20(IAc)/L12C-11/V91C-11: Cys-PEGylated and glycosylated IL-2 variant; T3 to C-Li20(IAc); L12, V91 to C-disialo; C125S (protein, UniProt P60568 21-153, looked up, variant T3C L12C V91C C125S, PEG on C3; disialo glycans, Cys-PEGylated and glycosylated IL-2 variant; T3 to C-Li20(IAc); L12, V91 to C-disialo; C125S) Interleukin-2: APCSSSTKKTQCQLEHLLLDLQMILNGINNYKNPKLTRMLTFKFYMPKKATELKHLQCLEEELKPLEEVLNLAQSKNFHLRPRDLISNINCIVLELKGSETTFMCEYADETATIVEFLNRWITFSQSIISTLT",lowered,greatly reduced,,,
"T3C-Y50(IAc)/E15C-11: Cys-PEGylated and glycosylated IL-2 variant; T3 to C-Y50(IAc); E15 to C-disialo; C125S (protein, UniProt P60568 21-153, looked up, variant T3C E15C C125S, PEG on C3; disialo glycan on C15, Cys-PEGylated and glycosylated IL-2 variant; T3 to C-Y50(IAc); E15 to C-disialo; C125S) Interleukin-2: APCSSSTKKTQLQLCHLLLDLQMILNGINNYKNPKLTRMLTFKFYMPKKATELKHLQCLEEELKPLEEVLNLAQSKNFHLRPRDLISNINVIVLELKGSETTFMCEYADETATIVEFLNRWITFSQSIISTLT",maintained,greatly reduced,,,
"T3C-V80(Mal)/E15C-11: Cys-PEGylated and glycosylated IL-2 variant; T3 to C-V80(Mal); E15 to C-disialo; C125S (protein, UniProt P60568 21-153, looked up, variant T3C E15C C125S, maleimide PEG on C3; disialo glycan on C15, Cys-PEGylated and glycosylated IL-2 variant; T3 to C-V80(Mal); E15 to C-disialo; C125S) Interleukin-2: APCSSSTKKTQLQLCHLLLDLQMILNGINNYKNPKLTRMLTFKFYMPKKATELKHLQCLEEELKPLEEVLNLAQSKNFHLRPRDLISNINVIVLELKGSETTFMCEYADETATIVEFLNRWITFSQSIISTLT",lowered,greatly reduced,,,
"A1C-11/T3C-11/S5C-11/L12C-11/V91C-11: glycosylated IL-2 variant; A1, T3, S5, L12, V91 to C-disialo; C125S (protein, UniProt P60568 21-153, looked up, variant A1C T3C S5C L12C V91C C125S, disialo glycans on cysteines, glycosylated IL-2 variant; A1, T3, S5, L12, V91 to C-disialo; C125S) Interleukin-2: CPCSCSTKKTQCQLEHLLLDLQMILNGINNYKNPKLTRMLTFKFYMPKKATELKHLQCLEEELKPLEEVLNLAQSKNFHLRPRDLISNINCIVLELKGSETTFMCEYADETATIVEFLNRWITFSQSIISTLT",lowered,greatly reduced,,,≤ 20
